B1: TPR t1 (parent)
chain: GACCAAUCUGCCCUCAGAGCUCGAGAACAUCUUCGGAUGCAGAGGAGGCAGGCUUCGGUGGCGCGAUAGCGCCAACGUCCUCAACCUCCAAUGCAUCCCACCACAUGAUGAUGCCUGAAGAGCCUUGGUUUUUUG

Variants of: B1
Test: polymerase ribozyme fitness, log enrichment relative to wild type (log ratio); higher = more active; in vitro selection for triplet polymerase activity
In short: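 Mutant libraries for each subunit of a heterodimeric triplet polymerase ribozyme were made by PCR and then transcribed. Each library underwent one round of in vitro selection in triplicate: annealing with a biotinylated primer, the partner subunit and triplets, frozen incubation at −7 °C, gel excision of extended constructs, streptavidin-bead capture and RT-PCR. Input and output libraries were Illumina-sequenced, and only genotypes with ≥10 input reads and ≥1 read per output were kept. Fitness is the logarithm, base 2, of genotype enrichment over wild-type enrichment, computed from inverse-variance-weighted replicate averages.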

Row | Variant | polymerase ribozyme fitness (log ratio)
1 | C22U C86G A100C A121U | -4.27
2 | A27U C40G G45U A119U | -5.54
3 | G52A G93U G120A | -0.0896
4 | C40A A41C C115A | -2.44
5 | A18U A46C G52A | -4.31
6 | C82G U130A | -1.07
7 | C49G U116G | -2.61
8 | A74U C82U G120A G122U | -0.0704
9 | A46C C53A A95C G128C | -3.03
10 | U59G U96A G128A | -2.77
11 | C56A C114U | -2.03
12 | A24G C98U C101A | -4.13
13 | G45A C97U | -2.83
14 | G113C U116G C124A | -5.98
15 | C89G C97A A100U C114A | -7.31
16 | U21C C22G G63A G77U C94A G110C U112C | -7.86
17 | C8A G93A G117U G128U | -4.74
18 | A26G A43U A50U C72A | -5.38
19 | A41U A50U C53A | -3.22
20 | A2U G42C C72A | -3.5
21 | C20A A74G | -3.04

Row | Variant | polymerase ribozyme fitness (log ratio)
22 | G47U A95U C101U C104A A111G C123G | -5.49
23 | U33G A118G | -5.59
24 | A37C C102A | -2.31
25 | G57C U78G U112A A118U | 1.26
26 | C3U C12A U21C G36A G63U | -3.34
27 | C12A G120A | 0.0228
28 | C72A C80A A90G U125A | -3.65
29 | C8A C86A | 0.557
30 | C12G C22A A41G G71U C124A | -4.76
31 | A83G U116A | -3.6
32 | C11A C94U | -1.19
33 | C73A C94A C102A | -2.96
34 | C34A U59C U112G | -4.39
35 | C11A G17U U112A U131G | -3.56
36 | C13G G57U | -1.94
37 | G39C C79A | -3.06
38 | G42C G69U A91U C102U | -0.697
39 | U7G G107U A121U G128C | -5.22
40 | C15U G128C | -3.18
41 | C13U C102G | -6.43
42 | G61A A74U G113U | -4.56

Row | Variant | polymerase ribozyme fitness (log ratio)
43 | A2C G36A U54C | -2.04
44 | C12U G48U C49U G63C C94U G128C | -4.36
45 | C56G G61U C73U | -3.17
46 | G48A A100U C101U G117A C123A | -3.72
47 | G17C C20G C73A C88U C99A A100C | -4.19
48 | G10C U32C C114U | -0.699
49 | C70U G110A | -1.77
50 | C20U U33G | -6.55
51 | C99G | -7.03
52 | G61U U78C C88U U130G | -0.822
53 | A84G C85A G127U | -5.16
54 | G71A G113A | -1.22
55 | C3U G52A | -0.0464
56 | C3A U7A C123U | 0.267
57 | C76A U81A C89U | -1.33
58 | G63C U87C | -0.645
59 | C20U C62U C94U | -2.47
60 | G52U C72G A121G | 1.49
61 | C34A G77C U78C | -2.16
62 | C20U C49U G71C A90U G117U | -6.09
63 | C64U C76U C89U U96A | -3.47

Row | Variant | polymerase ribozyme fitness (log ratio)
64 | C8G G47A C64U C97A G120U | -4.09
65 | U54C U59C C94U A111G G128A U131A | -3.64
66 | A18C U116A | -3.4
67 | C8A U59G G107U | -5.05
68 | A74C A100C | -1.06
69 | A18C G36C G57U | -4.25
70 | U21G C123G U126G | 0.0716
71 | U14A U59A A91G | -4.05
72 | A6G A91C | -1.54
73 | C40G C56U C88U G122U | -2.63
74 | C11U A66C | -1.81
75 | C20A G48U U55C | -3.81
76 | A6U C13A G36C C123U | 0.00441
77 | C12U G19C | -1.79
78 | C12U G42A G61A G110A | -4.38
79 | U87A A108G C114A U116A | -7.38
80 | C62G U78G | -2.88
81 | G71C C115A | -1.07
82 | A2U C73A G120C | -2.28
83 | C64A G120A | -5.35
84 | U81C A90C U112G | -2.24
